Common to all, as to test: pull-down MS
Settings in all cases: 5' biotin on sense strand; DNA immobilised on streptavidin beads in 20 mM Tris-HCl pH 8.0, 200 mM NaCl, 0.5 mM EDTA, 0.03% NP40; protein binding buffer and temperature not in the …

The target in series [1] is HCF-1 (Homo sapiens (Raji, Molt4)) (UniProt P51610).
Series [2] deals with Helios (Homo sapiens (Raji)) (UniProt Q9UKS7).
In series [3] the target is NFKB2 (NF-kappa B p100/p52) (Homo sapiens (Raji)) (UniProt Q00653).
The target in series [4] is Aiolos (Homo sapiens (Raji)) (UniProt Q9UKT9).
In series [5] the target is Ikaros (Homo sapiens (Raji, Molt4 nuclear extract)) (UniProt Q13422).

The text below walks through data of article PMC5006282.

Sequence of UniProt Q9UKT9 (Q9UKT9 whole entry): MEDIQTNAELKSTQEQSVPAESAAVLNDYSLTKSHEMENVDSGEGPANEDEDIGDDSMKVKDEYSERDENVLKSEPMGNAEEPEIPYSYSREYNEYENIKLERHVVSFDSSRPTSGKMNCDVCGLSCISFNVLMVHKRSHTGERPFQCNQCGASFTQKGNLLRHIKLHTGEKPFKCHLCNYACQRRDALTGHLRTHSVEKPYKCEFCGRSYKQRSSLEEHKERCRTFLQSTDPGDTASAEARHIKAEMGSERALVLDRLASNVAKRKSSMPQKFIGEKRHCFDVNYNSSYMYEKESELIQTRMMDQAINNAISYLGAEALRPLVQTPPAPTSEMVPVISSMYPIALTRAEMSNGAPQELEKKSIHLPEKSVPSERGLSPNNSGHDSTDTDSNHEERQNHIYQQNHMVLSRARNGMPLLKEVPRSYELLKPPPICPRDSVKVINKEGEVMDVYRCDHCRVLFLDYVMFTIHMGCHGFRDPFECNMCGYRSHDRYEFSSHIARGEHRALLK
Sequence of UniProt P51610 (P51610 whole entry): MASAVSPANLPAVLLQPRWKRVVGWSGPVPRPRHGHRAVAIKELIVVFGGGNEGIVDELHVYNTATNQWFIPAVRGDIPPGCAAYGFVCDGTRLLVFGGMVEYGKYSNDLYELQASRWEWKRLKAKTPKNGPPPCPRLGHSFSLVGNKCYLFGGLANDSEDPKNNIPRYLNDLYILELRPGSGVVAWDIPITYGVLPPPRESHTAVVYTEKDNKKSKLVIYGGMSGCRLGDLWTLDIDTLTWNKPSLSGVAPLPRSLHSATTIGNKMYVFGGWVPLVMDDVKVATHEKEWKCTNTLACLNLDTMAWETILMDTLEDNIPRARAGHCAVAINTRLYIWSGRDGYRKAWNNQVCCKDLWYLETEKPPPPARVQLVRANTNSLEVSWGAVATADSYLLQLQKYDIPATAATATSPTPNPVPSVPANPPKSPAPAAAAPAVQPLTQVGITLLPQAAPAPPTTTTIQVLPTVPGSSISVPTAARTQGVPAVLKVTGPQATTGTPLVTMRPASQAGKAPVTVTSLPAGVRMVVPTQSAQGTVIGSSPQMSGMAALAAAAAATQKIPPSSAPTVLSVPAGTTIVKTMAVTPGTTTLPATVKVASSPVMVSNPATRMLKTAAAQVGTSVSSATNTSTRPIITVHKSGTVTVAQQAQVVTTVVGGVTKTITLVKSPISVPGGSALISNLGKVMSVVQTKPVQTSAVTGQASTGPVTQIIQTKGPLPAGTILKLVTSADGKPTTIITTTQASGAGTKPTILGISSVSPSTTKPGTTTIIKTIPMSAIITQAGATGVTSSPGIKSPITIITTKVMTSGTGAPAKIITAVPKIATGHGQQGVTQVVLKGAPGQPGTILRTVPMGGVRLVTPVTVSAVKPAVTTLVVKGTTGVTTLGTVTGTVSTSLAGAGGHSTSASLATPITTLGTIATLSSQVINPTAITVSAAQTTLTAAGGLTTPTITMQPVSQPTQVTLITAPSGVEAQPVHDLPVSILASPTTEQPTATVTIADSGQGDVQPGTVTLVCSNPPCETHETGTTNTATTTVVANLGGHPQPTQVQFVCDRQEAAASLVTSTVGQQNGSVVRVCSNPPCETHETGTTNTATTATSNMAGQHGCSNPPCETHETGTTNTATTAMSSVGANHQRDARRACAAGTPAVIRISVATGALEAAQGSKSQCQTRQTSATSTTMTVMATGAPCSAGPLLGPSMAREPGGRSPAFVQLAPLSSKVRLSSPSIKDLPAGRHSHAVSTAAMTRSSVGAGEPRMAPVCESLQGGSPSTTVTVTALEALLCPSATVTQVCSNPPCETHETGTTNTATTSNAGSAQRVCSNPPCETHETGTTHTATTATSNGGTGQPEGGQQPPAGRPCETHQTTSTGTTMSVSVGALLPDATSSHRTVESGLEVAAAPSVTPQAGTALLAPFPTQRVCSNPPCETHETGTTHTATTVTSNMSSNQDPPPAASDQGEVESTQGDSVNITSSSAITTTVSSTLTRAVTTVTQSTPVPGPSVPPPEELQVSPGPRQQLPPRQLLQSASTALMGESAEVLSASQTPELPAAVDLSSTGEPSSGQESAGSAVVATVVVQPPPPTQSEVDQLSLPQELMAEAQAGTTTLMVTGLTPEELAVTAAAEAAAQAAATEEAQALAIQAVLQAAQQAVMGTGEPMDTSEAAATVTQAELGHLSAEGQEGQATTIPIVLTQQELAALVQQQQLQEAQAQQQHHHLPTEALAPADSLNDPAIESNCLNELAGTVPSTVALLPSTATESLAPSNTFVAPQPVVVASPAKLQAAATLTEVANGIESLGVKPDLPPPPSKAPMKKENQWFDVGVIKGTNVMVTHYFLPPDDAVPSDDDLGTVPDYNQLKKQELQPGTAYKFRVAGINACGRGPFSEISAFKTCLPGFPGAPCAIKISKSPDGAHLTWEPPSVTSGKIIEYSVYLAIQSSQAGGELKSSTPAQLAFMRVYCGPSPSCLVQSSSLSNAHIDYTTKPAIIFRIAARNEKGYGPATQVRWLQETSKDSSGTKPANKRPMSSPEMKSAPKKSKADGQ
Sequence of UniProt Q13422 (Q13422 whole entry): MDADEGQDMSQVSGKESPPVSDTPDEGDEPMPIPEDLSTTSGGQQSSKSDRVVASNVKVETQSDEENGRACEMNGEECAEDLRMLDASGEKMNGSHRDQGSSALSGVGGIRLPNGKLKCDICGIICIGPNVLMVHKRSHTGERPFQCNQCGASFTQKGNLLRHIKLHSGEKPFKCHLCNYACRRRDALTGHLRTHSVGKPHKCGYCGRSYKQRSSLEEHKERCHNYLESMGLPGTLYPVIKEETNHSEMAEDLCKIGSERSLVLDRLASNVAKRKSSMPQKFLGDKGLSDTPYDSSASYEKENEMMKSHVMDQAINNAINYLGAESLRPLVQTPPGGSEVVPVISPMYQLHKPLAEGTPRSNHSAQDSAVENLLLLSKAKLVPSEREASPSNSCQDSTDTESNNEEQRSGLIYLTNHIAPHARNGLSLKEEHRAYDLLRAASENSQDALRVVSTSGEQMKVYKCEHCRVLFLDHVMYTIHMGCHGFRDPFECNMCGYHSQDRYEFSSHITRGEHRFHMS
Sequence of UniProt Q9UKS7 (Q9UKS7 whole entry): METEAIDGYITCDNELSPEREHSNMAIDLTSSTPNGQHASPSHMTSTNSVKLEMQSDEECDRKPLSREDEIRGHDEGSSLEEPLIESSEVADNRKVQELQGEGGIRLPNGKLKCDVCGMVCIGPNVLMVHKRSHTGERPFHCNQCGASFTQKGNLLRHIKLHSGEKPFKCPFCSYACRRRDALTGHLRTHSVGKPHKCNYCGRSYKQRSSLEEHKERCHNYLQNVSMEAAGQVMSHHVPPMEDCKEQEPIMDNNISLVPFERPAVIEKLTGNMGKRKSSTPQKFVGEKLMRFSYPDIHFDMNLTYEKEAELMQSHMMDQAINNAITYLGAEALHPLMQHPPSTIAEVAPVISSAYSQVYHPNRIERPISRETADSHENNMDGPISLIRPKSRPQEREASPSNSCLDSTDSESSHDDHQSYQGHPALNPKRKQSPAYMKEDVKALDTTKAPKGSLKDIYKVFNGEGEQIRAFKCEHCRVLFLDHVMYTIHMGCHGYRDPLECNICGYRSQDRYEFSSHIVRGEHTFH
Sequence of UniProt Q00653 (Q00653 whole entry): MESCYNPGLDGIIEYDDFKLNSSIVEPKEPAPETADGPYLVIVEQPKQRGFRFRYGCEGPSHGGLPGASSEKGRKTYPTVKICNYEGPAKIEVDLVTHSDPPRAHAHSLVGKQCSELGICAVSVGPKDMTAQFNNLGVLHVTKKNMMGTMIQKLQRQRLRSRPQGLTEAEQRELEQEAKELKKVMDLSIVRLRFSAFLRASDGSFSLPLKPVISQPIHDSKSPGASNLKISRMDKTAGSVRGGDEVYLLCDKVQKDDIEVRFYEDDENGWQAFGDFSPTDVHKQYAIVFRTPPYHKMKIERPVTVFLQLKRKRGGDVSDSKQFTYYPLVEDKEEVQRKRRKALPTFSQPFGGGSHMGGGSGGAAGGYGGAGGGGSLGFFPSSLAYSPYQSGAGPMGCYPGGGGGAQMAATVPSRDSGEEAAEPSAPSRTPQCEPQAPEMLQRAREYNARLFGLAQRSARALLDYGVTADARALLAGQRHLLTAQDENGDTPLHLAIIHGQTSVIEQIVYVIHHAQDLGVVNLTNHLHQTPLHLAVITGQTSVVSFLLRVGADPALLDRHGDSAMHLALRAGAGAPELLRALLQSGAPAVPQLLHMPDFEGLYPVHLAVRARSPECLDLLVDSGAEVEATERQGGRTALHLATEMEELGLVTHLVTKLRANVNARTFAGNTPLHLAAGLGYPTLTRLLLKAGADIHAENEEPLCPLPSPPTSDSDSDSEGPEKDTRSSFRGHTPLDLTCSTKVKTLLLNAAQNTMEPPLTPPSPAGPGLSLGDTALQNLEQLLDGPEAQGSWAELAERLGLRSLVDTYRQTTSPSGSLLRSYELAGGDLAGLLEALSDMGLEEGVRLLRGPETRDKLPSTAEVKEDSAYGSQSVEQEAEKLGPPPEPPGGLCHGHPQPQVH

Turning to “CAAAACTGCAGGCAACTAGAACTACATTTCCCGGCGTGATTTGCTGCGGAACGAACTACATCTCCCGGCAGGCTGCG (double strand) [Tandem M4 WT]”, the binding signal (SILAC ratio WT/MT) in series [1] was 19; in series [2], over 100; in series [3], 31.8; in series [4], over 100; in series [5], over 100.
